Laboratory results taken from the DeepSol protein solubility set.

Test: soluble on expression in E. coli; label from the status in PepcDB or PDB records

Sequence | soluble on expression in E. coli
MRVIFMRQVTKSKKIKILPYPEWLVKAGMSKGIDHDRQHLGIILAAGEMIKVRQVNAEYKEKLKLYLLNDNKNTQRSISFNTDWIELSVDAISVPFINTPYSDGIIPEIVFEYPDTSKLLPVYEKGEDESIFFESWDKQNAEFGVVESEYVIILIPEVSKDRLKSFSTSGGIDTVLGFYQDIFSFNNSLAGLSFEPQRYSDGNTRNRYFAKADKGGGGAAYYSNNWIASSSGSINTFWLSPNATNWGCLHEIAHGYQGGFIDDKYFSTREVWNNIYAACYQDVMLGAEKFNKGWLYNFGKQKEVEKSILNNINNGKEVNAWGERSKLYFIMLMLEKAGVNCFTHFNQIYRERKNTDQSVGSVLDMLSNSFATVENRVDVTLFLQMVGGHISKNQYQRNLFSHAKAVYPLNQLLQGDELTAVKKTLDLNSELSLVDVDSIEFTDIKSNLTLQFSIDDFAQIYGEELLILNGDNYVYNQSIMDKKQTLYNLPVGAYTLRIPTGRNKKYAPQINYLIVKNEDSQTQVDFVHRIGSPIVSQKISLQGLNDYTFATIFFDQENDTVSVDITKTKPHYHFPGMYARIRIKDKDNNELLNEVITGTNQSLSKNDFPLSSCYVIDIFHKEPGRVKLTPAYKGVIDNKSSYNEFIITPYGLQNIKLNNDPKVFLLENIKSAAEMLRSHPIMWHANFSEAKDNIYLAIDIFPSPQKEGLLEQYADCISSYYEKPNEDLGNAFSFIFKGINDREFLTTKLNLVTKKLEVKIVSGTPHSGFKRTYAVLRYFNADGNELLNLDIIGSKKQAGQEWVFPISGYGGEKLYLQHVEPKNRLVITNIMQGIRLSSRTSIQTYEIESLGLSRCT | not soluble
MRVKEQLLTLRAYVPGKNIEEVKREYGLSKIVKLASNENPFGCSARVTEALTSLASQYALYPDGHAFELRTQVAKHLGVKAEQLLFGSGLDEVIQMISRALLHEGTNVVMANPTFSQYHHHAVIEGAEVREVSLKDGIHDLDAMLQQVDDQTKIVWICNPNNPTGTYVEKQKLLSFLESVPKSALVIMDEAYYEYAGAEDYPQTLPLLEKYENLMVLRTFSKAYGLAAFRIGYAVGNTELIGQLEVARLPFNTSTVAQSVALAALEDQAFLQECVKKNEEGLHQYYAFCKEYNVFYYPSQTNFIFLKLGIPGNEAFERLMKKGYIVRSGAAFGIDDGIRITVGLKEENDEIIELLKELVNEQVQKEETYS | soluble
MRVLVTGGSGYIGSHTCVQLLQNGHDVIILDNLCNSKRSVLPVIERLGGKHPTFVEGDIRNEALMTEILHDHAIDTVIHFAGLKAVGESVQKPLEYYDNNVNGTLRLISAMRAANVKNFIFSSAATVYGDNPKIPYVESFPTGTPQSPYGKSKLMVEQILTDLQKAQPDWSIALLRYFNPVGAHPSGDMGEDPQGIPNNLMPYIAQVAVGRRDSLAIFGNDYPTEDGTGVRDYIHVMDLADGHVVAMEKLANKPGVHIYNLGAGVGNSVLDVVNAFSKACGKPVNYHFAPRREGDLPAYWADASKADRELNWRVTRTLDEMAQDTWHWQSRHPQGYPD | soluble
MRVYYYMNIEELKRVIKDQREYLESLEKQKIIERELPFNVEQYLSKPNILAILGVRRSGKSTLGYLLVREKNFAYIDFSDDRLVNFTDFDTLTKAFYELYGDFTHVLIDEPQYVNGWELFVNRLRKEKSVIITGSNSSLLSGELASALTGRHVDLILFPFSFKEYLTFRGVKVDLYSTKSISLIKNELENYLKEGGFPETLSLGKRIIPSIYNDIITKDVIGRYKIRDVVKFKEFVNSMVKYYSTEISVRKLANLLKISTRTIEEWLNAIQESYLLFFVRRYSRSPKQFNGQRKVYVIDAGIVNYLTSFSYGGLMENVVAIQLLRKNQLEGIYYLRGEDYEVDFVDEKNGELIQVSYVSSQDEINRNEIRSLVKGSQITEFNKLTIVSWDLEDEIIVEGKKIRIVPLWKYLI | soluble
MRYEEPVFRPPSEAFSLIVQATIGCSWNRCTFCGMYKMKKFRVRDIEEVKEDFRLAKEIYGDVRRVFLADGNALAADTDYLLEIADYANKLFNLERISCYATPQDILEKSKEELKEIRNAGIKLLYVGIESGDDEILERIRKGVSSNEIAEACMKAHECGFELSVTVLTGIGGKERSYKNARNTARLLNRISPKYTGVLTYIPVPNTPLYVKIKRGEFLLPNPLENLLELRWMVERIEARTIFRCNHASNYLPLKGTLPEDREKLLKAIDYAIAHPEVLKPEWLRGL | not soluble
MRYLTAGESHGPRLTAIIEGIPAGLPLTAEDINEDLRRRQGGYGRGGRMKIENDQVVFTSGVRHGKTTGAPITMDVINKDHQKWLDIMSAEDIEDRLKSKRKITHPRPGHADLVGGIKYRFDDLRNSLERSSARETTMRVAVGAVAKRLLAELDMEIANHVVVFGGKEIDVPENLTVAEIKQRAAQSEVSIVNQEREQEIKDYIDQIKRDGDTIGGVVETVVGGVPVGLGSYVQWDRKLDARLAQAVVSINAFKGVEFGLGFEAGYRKGSQVMDEILWSKEDGYTRRTNNLGGFEGGMTNGQPIVVRGVMKPIPTLYKPLMSVDIETHEPYKATVERSDPTALPAAGMVMEAVVATVLAQEILEKFSSDNLEELKEAVAKHRDYTKNY | soluble
MRYTMDIEFSQIHEMVYMHDIVNSDSKKKPRIPLKKFLNAENVLTQTTSWTLNSRYVNVNSVNKVNVKSKVKNSYISRSVNDEFSLTDDEINSFKETLVLSSIDSLSKLVLNNPLSVLFTSTVRRNNNRAKMNVEFDSWICTRCCLEHHHHHH | soluble
MSAAEIDEGVFETTATIDNGSFGTRTIRFETGRLALQAAGAVVAYLDDDNMLLSATTASKNPKEHFDFFPLTVDVEERMYAAGRIPGSFFRREGRPSTDAILTCRLIDRPLRPSFVDGLRNEIQIVVTILSLDPGDLYDVLAINAASASTQLGGLPFSGPIGGVRVALIDGTWVGFPTVDQIERAVFDMVVAGRIVEGDVAIMMVEAEATENVVELVEGGAQAPTESVVAAGLEAAKPFIAALCTAQQELADAAGKSGKPTVDFPVFPDYGEDVYYSVSSVATDELAAALTIGGKAERDQRIDEIKTQVVQRLADTYEGREKEVGAALRALTKKLVRQRILTDHFRIDGRGITDIRALSAEVAVVPRAHGSALFERGETQILGVTTLDMIKMAQQIDSLGPETSKRYMHHYNFPPFSTGETGRVGSPKRREIGHGALAERALVPVLPSVEEFPYAIRQVSEALGSNGSTSMGSVCASTLALLNAGVPLKAPVAGIAMGLVSDDIQVEGAVDGVVERRFVTLTDILGAEDAFGDMDFKVAGTKDFVTALQLDTKLDGIPSQVLAGALEQAKDARLTILEVMAEAIDRPDEMSPYAPRVTTIKVPVDKIGEVIGPKGKVINAITEETGAQISIEDDGTVFVGATDGPSAQAAIDKINAIANPQLPTVGERFLGTVVKTTDFGAFVSLLPGRDGLVHISKLGKGKRIAKVEDVVNVGDKLRVEIADIDKRGKISLILVADEDSTAAATDAATVTS | not soluble
MSAAQYARLVPKKYRSKTLPKIDRPWRPRVIAWAGPAAFYPNRFYEVDKWYKARIDKPEKLPEMHIIEPAEHMKSLKVLMQKSEIEQINIGFKRREVAGKAEKSAEDRIELERKSRHMQLKIDIDHLDVENLSIYRHFQVFDHLFGDNIFFENVQNLQVNFENDIVVHSGNVITANSTLKRPEITIESVGNGGGFNTLLMINLDGNALDLGKNGEIVQWMISNIPDGEAISAGSEIIDYLQPLPFYGTGYHRVAFVLFRHEKPVDFQIQGNSLDTRIHEISKFYKKHEATITPSAIRFFQTSYDNSVKMALHGLGMTSPLYEYEHRPALKPAQREFPEKPQPFDLYLDMYRDPKEVEQEMLEKRLAEVKLDYVKEPKWVDTDYVENKKKLPAWLHAKKLERDGVGHAKYHNDL | not soluble
MSAASEAVSGALFQHLFRIFSLFADQNEKGTFKPAQAEFLIDELLRELRRQTTPKVHDLPENVTFNEFLNLLQVIFPDREDLLIATNRVFERYVNHVIGKGFVLFRKLSQKRGCLPFKRRTEDWQFGWLQVLPGVAEIRKQNSDIDDIIQFDEDTVIEPPVIDEDASVWSVICNSTTAFQFSHLDPIMAQLFVKGFLTYWKLNLKYFFSDMRSARDFPTREELAVFDYKRSLKSRPTKEGKSRKELETERCRLESELEEEKKNRKDEEIVRGLTTRLLKQEMEKSEQMQQVIYELRSKLDNGENEAGVDDEDIVDVEMIEDEISEDVGENEEISITLPSREEKIQQYAYHLYATQAEEHVTSDDEEIWKQNYNLIVSTHFTDTMWKSCKPIVYCSEIVSQIVNQSPFIFLINLNNDLHNRATLGLTTYLVSYRFPCSFFLIELKMTKLRVGFIGYGHLGKFLVEKLRLLPEEFEIVKIWNRSVGEPGVQGLETLTAENLKDIDLVVEVAHPKIIADYGELILEHCDLFAGSPTCFANQELLEKLTKLSLSHGKKLLIPAGALWGANDIQKMADVGSLKGLTVTMIKHPTSFKLGSPLFEINEKAKLEETNETVLYEGSVRGLCPLAPNNVNTMAGGALAASNLGFDEVKAKLISDPKMTDWHVVEVRVEGDDGFEVITRRNNPAKPGAVTGQLTYYSFLSSIKESRYKPIGVQLC | not soluble
MSADAYHPPTTSPRLETLDVLSIGMSLDVFRQGQVWKALQEQNAAQAEALHVGSILPMDPKKYPTSADDKDMAYEKRQADALELGLKNFLEKWPIPTVTVVRGWDPSTPNLRFTPEETRESLSVKVNDLRVPAGLHWHRIANLQDGIICNDTPEGVLEALFSLFERNPDLPAVLVYANEGISMAGALSSRDVTLKSLGAVSGPRIPGTLTDAMVALIVGRPERVDWLRQFAPYTKVNENRIDPEFRGWGWRKPPVEFRPTPFIPQPWTERALEQWDALPVLARLHRPVSVPLTHPDTGERLKREALTAQLAAAWKTASAGLRPAPARLFYDGGLNATPLAELTPALGAAQSSLDLLDSRESYDLTQRLGDTGAASPFVGITLATMASYLNGDSSMVMPLRRKDQATLIGISSPTPGKKPVHDPFGVDLLPQTASGDGPPPSADPVAPASRLTTRLPPGEDYALEEFLSSLKPSTDWQDDL | not soluble
MSADENNLIWIDLEMTGLDPERDRIIEIATLVTDASLNILAEGPTIAVHQSDAQLALMDDWNVRTHTGSGLVDRVKASTMGERDAELATIEFLKTWVPAGKSPICGNSIGQDRRFLFKYMPELEAYFHYRYLDVSTLKELARRWKPEILAGFTKQGTHQAMDDIRESVAELAYYREHFIKL | not soluble
MSAFDIVLREGTVVDGTGADPFVADVAISGGRIAAIGPNLSRGTTEINASGQIVTPGFVDLHTHYDGQVTWDNRLAPSSYHGVTTAVIGNCGVGFAPCRRDAASRDAMVRLMEGVEDIPHPVLTEGLPWTWETFPDYLDFLASRTYDIDVAAYVPHAPLRVYVMGQRGADREPATQTDIAEMCRLLEQALDRGALGIATSRSLFHRSSDGTAIPTYQAAQAELMAFAEVLRAKGKGVFQIVEDIHVPGASLDNMRELARTSGRPLTFSIGTGNTGPYGYPRLLDELAAANAEGLVMKGQLMPRGIGMILGFELTLNPFYTTSTFARLAPLPLAERLEQLRRPEIRAAILSEPMDPDPALVLGRAVRDFDHMFLLGDDPDYEQPPERSIAGRAREAGITPEELAYDVMTEGESGGLLYLAMANYADGSLDAVGDILSHPDVVLGLGDGGAHVGTICDASYSTFALCHWARDRQRGRKTVADMVHRMTQATARVIGLEDRGELAVGKRADINVIDLAQLALRPPQVCHDLPAGGRRLIQRATGYSLTMLAGEIVLRDDEPTGLLPGRLIRASLEHHHHHH | not soluble
MSAFFLNMEKSIITQKIIAKAFKDLMQSNAYHQISVSDIMQTAKIRRQTFYNYFQNQEELLSWIFENDFAELINDNSDYYGWQNELLLLLRYLDENQIFYQKIFVIDKNFEHFFLIQWENLLDKVIFDQEKKSDYHWSDLEKSFICRYNAAAICAITRESIIRGNSLEKLYSQIVNLLLAQIKIFESLEHHHHHH | soluble
MSAFPVHAAFEKDFLVQLVVVDLNDSMDQVAEKVAYHCVNRRVAPREGVMRVRKHRSTELFPRDMTIAESGLNPTEVIDVVFEE | soluble
